# Assay: soluble on expression in E. coli; label from the status in PepcDB or PDB records
row,Sequence,soluble on expression in E. coli
1,IAPTAQKLSKIYGVRSSIIIGQAALDSHFGSTLLASKYHNLFSIEASPGQGAVRLKSHEYKNGRWQEVTNRYLVYESWKESLYDYMAILHGNKIWDKALYTTMMTSSGYKTVARALQAAGFNSDPNYADKLIAVIEENNLTDYDK,not soluble
2,IGDWGYSVSANLTTISNKVKSLVQDGYSIIAGDKSQSYTMAGYPIGYFYGYKVAGVYQNQAEIDASPVNTLATVTPGDLKFADVNGDGKITPDDRTKIGDPTPDVTYGISLGLSYKNWELSMEMMGQGGNQIYRTWDNYNWAQFNYMEQRLDRWHGEGTSNTQPLLNTKHAINSENSEYFIEDGSFFRIRNLQLAYSFDKTLLSKIRMQALKVYVNIQNLKTWKHNTGYTPEIGGSAIAFGVDNGTYPVPAVYTFGINLTF,not soluble
3,IGNTLHNYSVLADSKSVLLGVMSKNIQVGSFAYRYLCRTSSRMNLNHLQTVDGPIGRCYTLISQDGERTFAINEGHMNQLLPESIPEEVFEKASALVVSSYLMRGKEEDPMPKAVQRAIDFAKKHDVPVVLTLGTKYVIEGNAEWWQEYIRENVSVVAMNEEEGAALTGEHDPLAAADKALEWVDLVLCTAGPNGLYMAGYTDEKVKRETTHDILESSIEEFNKFEFSRAMRKEDCVNPMKVYSHIGPYLGGPLEIKNTNGAGDAALSALLHDMAANSFHQKEVPTSEKHEVRCLTYSSLSQICKYANRVSYEVLTQHSPRLSRALPEREDSLEETYWDR,not soluble
4,IKQMLLDWCRAKTRGYEHVDIQNFSSSWSDGMAFCALVHNFFPEAFDYGQLSPQNRRQNFEVAFSSAETHADCPQLLDTEDMVRLREPDWKCVYTYIQEFYRCLVQKGLVKTKKS,soluble
5,INVIISTIISTKRADDFIIAMCNLIQRLTIDSLHIVGDIYDRGPGAHIIMDTLCNYHNFDIQWGNHDILWMGAASGNDSCIANVIRMSMRYGNLGTLEDGYGINLLPLATFAMDTYADDPCTIFMPKMNFADTNYNEKTLRLITQMHKAITIIQFKLEAEIIDRRPEFGMSNRKLLEKIDFERGVFVYEGKEYALRDTNFPTVDPADPYRLTDEERELVEKIHYSFMNSEKLKKHMRCLFTYGGMYLVSNSNLLYHASVPLNEDGSFKHVKIRGKEYWGRKLLDKADQLIRTAYFDEEGEDDKEFAMDYIWYMWCGPEAPLFDKDKMATFERYFLEDKEIQKEKKGYYYTLRNREDICDQILDEFGALGPHSHIINGHVPVKTIQGEQPMKANGKLFVIDGGFSKAYQPETGIAGYTLVYHSHGMQL,not soluble
6,ISEFDSGETMREEQPHLATTWAARGWVEEEGIGSATLGRLVRAWPRRAAVVNKADILDEWADYDTLVPDYPLEIVPFAEHPLFLAAEPHQRQRVLTGMWIGYNERVIATEQLIAEPAFDLVMHGVFPGSDDPLIRKSVQQAIVDESFHTYMHMLAIDRTRELRKISERPPQPELVTYRRLRRVLADMPEQWERDIAVLVWGAVAETCINALLALLARDATIQPMHSLITTLHLRDETAHGSIVVEVVRELYARMNEQQRRALVRCLPIALEAFAEQDLSALLLELNAAGIRGAEEIVGDLRSTAGGTRLVRDFSGARKMVEQLGLDDAVDFDFPERPDWSPHTPR,soluble
7,ISEFMSDITVTNWAGNITYTAKELLRPHSLDALRALVADSARVRVLGSGHSFNEIAEPGDGGVLLSLAGLPSVVDVDTAARTVRVGGGVRYAELARVVHARGLALPNMASLPHISVAGSVATGTHGSGVGNGSLASVVREVELVTADGSTVVIARGDERFGGAVTSLGALGVVTSLTLDLEPAYEMEQHVFTELPLAGLDPATFETVMAAAYSVSLFTDWRAPGFRQVWLKRRTDRPLDGFPYAAPAAEKMHPVPGMPAVNCTEQFGVPGPWHERLPHFRAEFTPSSGAELQSEYLMPREHALAALHAMDAIRETLAPVLQTCEIRTVAADAQWLSPAYGRDTVAAHFTWVEDTAAVLPVVRRLEEALVPFAARPHWGKVFTVPAGELRALYPRLADFGALAGALDPAGKFTNAFVRGVLAG,soluble
8,IVGGYTCAANSIPYQVSLNSGSHFCGGSLINSQWVVSAAHCYKSRIQVRLGEHNIDVLEGNEQFINAAKIITHPNFNGNTLDNDIMLIKLSSPATLNSRVATVSLPRSCAAAGTECLISGWGNTKSSGSSYPSLLQCLKAPVLSDSSCKSSYPGQITGNMICVGFLEGGKDSCQGDSGGPVVCNGQLQGIVSWGYGCAQKNKPGVYTKVCNYVNWIQQTIAAN,soluble
9,KDINLYKGSIPSGKQQGVDAILISNPNLINILEQAKQKNTAQGSESTTNKIIGYTTTANVNVDNQNIFSVSKLNNEQFQRKIIVNATEETLDQSQTLQSNESIVLPMPGKYKSTDKNKVMITQGPNLIGIHANEKENIETKKFVNW,not soluble
10,KDMFNTKSSNGKLRIEDASHNARKLGLAPSSTDEKKIRDLYGDSLTYEQYLEYLTMCVHDRDNMEELIKMFSHFDNNSSGFLTKNQMKNILTTWGDALTEQEANDALNAFSSEDRINYKLFCEDIL,soluble
11,KEMRQQVPATIKGPTEEYEYYMELMALLNNLLETARSRGFKFLDSHIEAPEQSSIFLMYPLVSEDHRLISFITDNLRLMAMGQMSPHELEGLLEQEIEAIQNELLLPSRSLQRTAE,not soluble
12,KETCSTGLYTHSGECCKACNLGEGVAQPCGANQTVCEPCLDSVTFSDVVSATEPCKPCTECLGLQSMSAPCVEADDAVCRCAYGYYQDEETGHCEACSVCEVGSGLVFSCQDKQNTVCEECPEGTYSDEANHVDPCLPCTVCEDTERQLRECTPWADAECEHHHHHH,soluble
13,KFGGINETYLPPNNTVRTAQASFDENFPHFRTEPIKLVITGATNQQLVDVYQQANKVEGLTDRFKPSSATKDGTTVLSAGIENREDNAKVVEQLRAIDAPEGVSVYIGGIPAMEVESIEALFDKLP,not soluble
14,KIIEEFIDSLFSGVVETSETKQLKADLLANAEDRYEDLLSQGKSENEAIGTIISEFGTIDELMEELNLENKQVDEPNDS,not soluble
15,KKEKSPKGKSSISPQARAFLEEVFRRKQSLNSKEKEEVAKKCGITPLQVRVWFINKRMRSK,soluble
16,KKPIPTLFLHGFGGSANSEKFMVKQAEKRGVTKDIITAYVSKDGAVTFKGKLRKDAVNPIVKIELENNRQGYLDKNAAWFKNVLTKLQSEYNFDKFNFVGHSMGNLTFAQYMMTYGNDKSLPQLNKQVNIAGTFNGVLNMNEDVNEITVDKDGKPSRMNQPYQQLRVLKDIYKGKGIEVLNIYGDLKDGTHSDGRVSNSSSKSLKYLLGNSPKSYRESKYEGEPAQHSQLHENENVANELIDFLWKK,not soluble
17,KKPLSVFKGPLLHISPAEELYFGSIESGEKKTLIVLTNVTKNIVAFKVRTTAPEKYRVKPSNSSCDPGASIDIIVSPHGGLTVSAQDRFLIMAAEMEQSSGTGPAELSQFWKEVPRNKVMEHRLRCHTVESSKPNSLML,soluble
18,KQKGNYGEYLADDNLINNPKLKEAGYDLERIGGKVPTSPDDKITKGIDGIYINKNPNSNIKYVIDEAKFGKAGLSAKTRDGKQMSDSWLMGSRSRDNRILKALNNNEELADDILEALANNQVERILSKVDINGEVTTYRLDSEGNIIGLWP,soluble
19,KQKKMQAMIVTSRPDRVIRMIHHKLHRGVTIINDAEGTYNHEHKAILVTIITRAEFNDFKYIMKKTDKNAFVSVADNVNIIGRFVEED,not soluble
20,KSDSENIKDVKLQLNYAYEIIPVDYTNCNIDYLTTHDFYIDISSYKKKNFSVDSEVESYITTKFTKNQKVNIFGLPYIFTRYDVYYIYGGVTPSVNSNSENSKIVGNLLIDGVQQKTLINPIKIDKPIFTIQEFDFKIRQYLMQTYKIYDPNSPYIKGQLEIAINGNKHESFNLYDATSSSTRSDIFKKYKDNKTINMKDFSHFDIYLWTK,soluble
21,KTISLYKDSIPKEKTEGTDAILISDNQLINQLQTAAKTSSSQNKANTAAITFKQSNKSETDQSTTSQVIGYTTTASLKADKKNIFDVKKLNNEKSERKIIVGATVETLNQANTLQANEAIIKPAPGKYQSTDSHKVMITQGPNIVGIHANEKEDKETQKFINW,soluble
22,KTNTEQFCASCHMQDAYPEYLHSVHYQTRTGVGASCPDCHVPHEFGAKMKRKIIAAKEVYAHYTGKVDTLEKFNAHRLEMAQNEWARMKANDSKECRNCHNVDRMTFNDQRSVAARMHQKMKTEGKTCIDCHKGIAHQLPDMSGVESGFKDEK,not soluble
23,KTTTTIYDKNKEYAGKLSGQKGTYVELNAISDHLKNAVIATEDRTFYENNGVNFKRFFLAVATLGKFGGGSTITQQLAKNAYLSQDQTIKRKAREFFLALELTKKYSKAEILTMYLNNSYFGNGVWGVEDASRKYFGTSAANLTVDEAATLAGMLKGPEVY,not soluble
24,KTTVRVGLVQWQMRPYKTLDDVFEQVEFFVDAVSDYKSDFVLFPEYFNAPLMAKFNHLGEAQSIRGLAQYTEEVRDRFINLAISYNINIITGSMPYVKEDGGLYNVGFLVRRDGSYEMYEKVHVTPDEIKSWGLSGGKMVQTFDTDCAKIGILICYDVEFPELSRIMADQGMQILFVPFLTDTQNGYSRVRVCAQARAIENECFVVIAGSVGNLPRVHNMDIQYAQSGVFTPCDFAFPTDGKRAEATPNTEMILVSDVDLNLLNELHTYGSVRNLRDRRHDLYELKIKK,not soluble
25,KVILKEDAEMLDEVVVTGYGMSQKRSLMTNSISKLDDKVLQNAAMSNAAQSLQGTVSGLRVTNTSGKPGSSPNIVLRGGASINKNLEGPLVVVDGLVRSMDDINPSDIESIQVLKDAASTAIYGARANNGVILVTTKKGVEGR,not soluble
26,KVKELNLHELCAVCLEDFKPRDELGICPCKHAFHRKCLIKWLEVRKVCPLCNMPVLQLAQL,soluble
27,KVVLISDVHVGSSQFLEDAWLDFLDFLKGESDSEEMREIASQVRYLVVAGDLVDGIGIYPDQEMELDILDVYEQYRKAADYFKEIPRHIRVIISPGNHDAVRQAEPQPALPERICADFPENVTFVGNPALVDLDGIRILIYHGRSIDDLVASVPGVSYHEPAGAVLEMLKRRHLAPTYGSRVSISPEKKDYFIIDPVPDIIHTGHVHTLGVQRYKNVLLVNSGTWQAQTEFQKRVNLVPVPARVPVVDLADFDVKILAFD,not soluble
28,KVWWTLPYGPHEDEKNLTLEDWRDRVLDSTREAVAIRQRAAVDVGVLLSGGVDSSMLVGLLREVGVEDLSTFSIGFQDAGGERGDEFQYSDLIAKHYGTRHHQLRIQESEIIEQLPAAFRAMSEPMVSHDCIAFYLLSREVAKHCKVVQSGQGADELFAGYHWYPQVDGASDPVAAYRYAFVDRSYAEYADTVQPKWRTANDAAGDFVRDHFAQPGASAAVDKALRLDSTVMLVDDPVKRVDNMTMAWGLEARTPFLDYRLVELSARIPGKFKLPDGGKQVLKEAARLVIPSEVIDRKKGYFPVPGLKHLQGDTLNWVRELLTDPSQDRGLFNPTMVDKLLTNPEGQLTPLRGSKLWQLAALNLWLSEQ,not soluble
29,KYDNKEFSSAVGHYGVGNGPYFMIPGYGPYTLREVTDTVDGMYLPLSYLNIWAGLGKWALEGLEKRALLVPQEAQLDSSPDPYVLTRDVYIQRQNFKAEIDTVEEVNPEEEALLDEYLDEF,not soluble
30,LASIFVDVSSVEPGVQLTVKFLGKPIFIRRRTEADIELGRSVQLGQLVDTNARNANIDAGAEATDQNRTLDEAGEWLVMWGVCTHLGCVPIGGVSGDFGGWFCPCHGTHYDSAGRIRKGPAPENLPIPLAKFIDETTIQLG,soluble

# Source: the DeepSol protein solubility set
